Source: patent publication US20100158926A1
Several values for one entry are separate records, joined by “and”; a condition that tells them apart may be missing. Equal entries are not always repeated.

Legend:
[1] = molecular target: human ErbB2, full length, on cells (B300.19/hErbB2 clone #44; MCF7; BT474; SKBR3) (human)
[2] = molecular target: human ErbB2, full length, on cells (B300.19/hErbB2 clone #44; MCF7; BT474; SKBR3) (human); remark: listed apart in the source
[3] = molecular target: human ErbB2, full length, on cells (B300.19/hErbB2 clone #44; MCF7; BT474; SKBR3) (human); remark: listed apart in the source
[4] = molecular target: human ErbB2, full length, on cells (B300.19/hErbB2 clone #44; MCF7; BT474; SKBR3) (human); remark: listed apart in the source
[5] = molecular target: human ErbB2, full length, on cells (B300.19/hErbB2 clone #44; MCF7; BT474; SKBR3) (human); remark: listed apart in the source
[6] = molecular target: human ErbB2 ECD-myc/His fusion protein (human); test: SPR, high resolution Biacore T100; mAb captured on goat anti-human IgG, hHer-2(ECD)cMyc injected; 1:1 fit
[7] = molecular target: human ErbB2, full length, on cells (B300.19/hErbB2 clone #44; MCF7; BT474; SKBR3) (human); remark: listed apart in the source
[8] = molecular target: human ErbB2 ECD-myc/His fusion protein (human); test: limited antigen ELISA, 31 ng/ml antigen coated, supernatant 1:25, OD 450 nm
[9] = molecular target: human ErbB2 ECD-myc/His fusion protein (human); test: SPR, medium resolution Biacore 2000; mAb captured on goat anti-human IgG, ErbB2(ECD)-cMyc/His injected; 1:1 fit

hIgG1 control antibody
N1 % Inhibition @40 µg/ml, BT474 cell proliferation [1]: -2% | N1 EC50 (ng/ml), inhibition of BT474 cell proliferation [1]: > 40000 ng/mL | N2 EC50 (ng/ml), inhibition of BT474 cell proliferation [1]: > 40000 ng/mL | % inhibition @36 µg/ml, SKBR3 cell proliferation [2]: 2% | EC50 (ng/ml), inhibition of SKBR3 cell proliferation [2]: > 36000 ng/mL

Herceptin® (antibody)
EC50 (ng/ml) n1, inhibition of Heregulin-induced ErbB2 phosphorylation in MCF7 cells [3]: > 10000 ng/mL | EC50 (ng/ml) n2, inhibition of Heregulin-induced ErbB2 phosphorylation in MCF7 cells [3]: > 10000 ng/mL | EC50 (ng/ml), inhibition of Heregulin-induced MCF7 cell proliferation [4]: > 10000 ng/mL | % Inhibition @10 µg/ml (n1), ErbB2 phosphorylation in BT474 cells at 48 hours [5]: 5%

chimeric anti-hErbB2 antibody 2C4
EC50 (ng/ml) n1, inhibition of Heregulin-induced ErbB2 phosphorylation in MCF7 cells [3]: 43.6 ng/mL | EC50 (ng/ml) n2, inhibition of Heregulin-induced ErbB2 phosphorylation in MCF7 cells [3]: 14.6 ng/mL | % Inhibition @10 µg/ml, Heregulin-induced MCF7 cell proliferation [4]: 90% | EC50 (ng/ml), inhibition of Heregulin-induced MCF7 cell proliferation [4]: 404 ng/mL | N1 % Inhibition @40 µg/ml, BT474 cell proliferation [1]: -9% | N1 EC50 (ng/ml), inhibition of BT474 cell proliferation [1]: > 40000 ng/mL | N2 EC50 (ng/ml), inhibition of BT474 cell proliferation [1]: 4750 ng/mL | EC50 (ng/ml), inhibition of SKBR3 cell proliferation [2]: > 36000 ng/mL | % Inhibition @10 µg/ml (n1), ErbB2 phosphorylation in BT474 cells at 48 hours [5]: 10% | Kd [6]: 3.2 nM

B1: monoclonal antibody 1.43 (antibody, V domains shown)
VH: QVQLVESGGGLVKPGGSLRLSCAASGFTFSDYYMNWIRQAPGKGLEWVSYISSSGSIIYYADSVKGRFTISRDNAKNSLYLQMNSLRAEDTAVYYCAREGRIAARGMDVWGQGTTVTVSS
VL: DIQMTQSPSSLSASVGDRVSITCRPSQSFSRYINWYQQKPGKAPKLLIHAASSLVGGVPSRFSGSGSGTDFTLTISSLQPEDFATYYCQQTYSNPPITFGQGTRLEMK
24 hr pTyr inhibition % (line 1*41) [7]: 86% | 24 hr pTyr inhibition % (line 1*43) [7]: 82% | EC50 (ng/ml) n1, inhibition of Heregulin-induced ErbB2 phosphorylation in MCF7 cells [3]: > 10000 ng/mL | EC50 (ng/ml) n2, inhibition of Heregulin-induced ErbB2 phosphorylation in MCF7 cells [3]: > 10000 ng/mL | % Inhibition @10 µg/ml, Heregulin-induced MCF7 cell proliferation [4]: 53% | EC50 (ng/ml), inhibition of Heregulin-induced MCF7 cell proliferation [4]: 10000 ng/mL | LA at 31 ng/ml [8]: 3.2 OD and 3.57 OD

B2: monoclonal antibody 1.96 (antibody, V domains shown)
VH: EVQLVESGGGLVQPGGSLRLSCAASGFTFSSYWMSWVRQAPGKGLEWVANIKQDGSEKYYVDSVKGRFTISRDNAKNSLYLQMNSLRAEDTAVYYCARWGVFGSGSYYIPFDYWGQGTLVTVSS
VL: DIQMTQSPSSLSASVGDRVTITCRASHSITRYINWYQQKPGKAPNLLIYAASSLQSGVPSRFSGSGSGTDFTLTISSPQPEDFATYYCQQSYSSPPITFGQGTRLEIK
24 hr pTyr inhibition % (line 1*96) [7]: 99% | 24 hr pTyr inhibition % (line 1*99) [7]: 99% | 24 hr pTyr inhibition % (line 1*104) [7]: 73% | 24 hr pTyr inhibition % (line 1*107) [7]: 82% | 24 hr pTyr inhibition % (line 1*128) [7]: 98% | EC50 (ng/ml) n1, inhibition of Heregulin-induced ErbB2 phosphorylation in MCF7 cells [3]: 28.8 ng/mL | EC50 (ng/ml) n2, inhibition of Heregulin-induced ErbB2 phosphorylation in MCF7 cells [3]: 34 ng/mL | % Inhibition @10 µg/ml, Heregulin-induced MCF7 cell proliferation [4]: 98% | EC50 (ng/ml), inhibition of Heregulin-induced MCF7 cell proliferation [4]: 2830 ng/mL | N1 % Inhibition @40 µg/ml, BT474 cell proliferation [1]: 35% | N1 EC50 (ng/ml), inhibition of BT474 cell proliferation [1]: 131 ng/mL | N2 EC50 (ng/ml), inhibition of BT474 cell proliferation [1]: 66.3 ng/mL | % inhibition @36 µg/ml, SKBR3 cell proliferation [2]: 43% | EC50 (ng/ml), inhibition of SKBR3 cell proliferation [2]: 41.7 ng/mL | % Inhibition @10 µg/ml (n1), ErbB2 phosphorylation in BT474 cells at 48 hours [5]: 37% | Kd [6]: 11.6 nM | koff [6]: 0.000194 s⁻¹ | kon [6]: 16800 M⁻¹ s⁻¹ | Kd [9]: 2.6 nM | koff [9]: 0.000273 s⁻¹ | kon [9]: 103000 M⁻¹ s⁻¹

B3: monoclonal antibody 1.18.1 (antibody, V domains shown)
VH: QVQLVESGGGVVQPGRSLRLSCAASGFTFSSYGMHWVRQAPGKGLEWVAVIWYDRSNKYYADSVKGRFTISRDNSKNTLYLQMDSLRAEDTAVYYCAGGRSRGAFDYWGQGTLVTVSS
VL: DIQMTQSPSSLSASVGDRVTITCRASQGIRNYLAWFQQKPGKAPKSLIYAASSLQSGVPSTFSGSGSGTHFTLTISSLQPEDFASYFCQQYEIYPLTFGGGTKVEIK
24 hr pTyr inhibition % (line 1*18) [7]: 96% | EC50 (ng/ml) n1, inhibition of Heregulin-induced ErbB2 phosphorylation in MCF7 cells [3]: 4.2 ng/mL | EC50 (ng/ml) n2, inhibition of Heregulin-induced ErbB2 phosphorylation in MCF7 cells [3]: 10.8 ng/mL | % Inhibition @10 µg/ml, Heregulin-induced MCF7 cell proliferation [4]: 94% | EC50 (ng/ml), inhibition of Heregulin-induced MCF7 cell proliferation [4]: 415 ng/mL | N1 % Inhibition @40 µg/ml, BT474 cell proliferation [1]: 34% | N1 EC50 (ng/ml), inhibition of BT474 cell proliferation [1]: 38.1 ng/mL | N2 EC50 (ng/ml), inhibition of BT474 cell proliferation [1]: 28.2 ng/mL | % inhibition @36 µg/ml, SKBR3 cell proliferation [2]: 46% | EC50 (ng/ml), inhibition of SKBR3 cell proliferation [2]: 26.3 ng/mL | % Inhibition @10 µg/ml (n1), ErbB2 phosphorylation in BT474 cells at 48 hours [5]: 24% | LA at 31 ng/ml [8]: 3.03 OD | Kd [9]: 3 nM | koff [9]: 0.000302 s⁻¹ | kon [9]: 100000 M⁻¹ s⁻¹

B4: monoclonal antibody 1.20 (antibody, V domains shown)
VH: QLQLQESGPGLVKPSETLSLTCTVSGGSISSSNYYWGWIRQPPGKGLEWIGTIYYTGSTYYNPSLKSRVTISVDTSKNQFSLKLSSVTAADTAVYYCARHHWVFDYWGQGTLVTVSS
VL: DIQMTQSPSSVSASVGDRVTITCRASQGISSWLAWYQQKPGKAPKLLIYAASSLQSGVPSRFSGSGSGTDFTLTISSLQPEDFATYYCQRTNSFPRTFGQGTKVEIK
24 hr pTyr inhibition % (line 1*19) [7]: 97% | 24 hr pTyr inhibition % (line 1*20) [7]: 96% | EC50 (ng/ml) n1, inhibition of Heregulin-induced ErbB2 phosphorylation in MCF7 cells [3]: 15.5 ng/mL | EC50 (ng/ml) n2, inhibition of Heregulin-induced ErbB2 phosphorylation in MCF7 cells [3]: 17.4 ng/mL | % Inhibition @10 µg/ml, Heregulin-induced MCF7 cell proliferation [4]: 100% | EC50 (ng/ml), inhibition of Heregulin-induced MCF7 cell proliferation [4]: 770 ng/mL | N1 % Inhibition @40 µg/ml, BT474 cell proliferation [1]: 40% | N1 EC50 (ng/ml), inhibition of BT474 cell proliferation [1]: 85.3 ng/mL | N2 EC50 (ng/ml), inhibition of BT474 cell proliferation [1]: 12.8 ng/mL | % inhibition @36 µg/ml, SKBR3 cell proliferation [2]: 49% | EC50 (ng/ml), inhibition of SKBR3 cell proliferation [2]: 25.2 ng/mL | % Inhibition @10 µg/ml (n1), ErbB2 phosphorylation in BT474 cells at 48 hours [5]: 21% | LA at 31 ng/ml [8]: 2.84 OD and 1.77 OD | Kd [9]: 3.6 nM | koff [9]: 0.000344 s⁻¹ | kon [9]: 95000 M⁻¹ s⁻¹

B5: monoclonal antibody 1.14.1 (antibody, V domains shown)
VH: QLQLQESGPGLVKPSETLSLTCTVSGDSISSFIYYWGWIRQPPGKGLEWIGTIYYSGSTYYNPSLKSRVTISVDTSKNQFSLKLRSVTAADTAVYYCARHHWVFDYWGQGTQVTVSS
VL: DIVLTQFPDFQSVTPKEKVTITCRASQVIGSSLHWYQQKPDQSPKLLIKYASQSFSGVPSRFSGSGSGTDFTLTINSLEVEDAATYYCHQSTILPWTFGQGTKVEVK
24 hr pTyr inhibition % (line 1*14) [7]: 100% | EC50 (ng/ml) n1, inhibition of Heregulin-induced ErbB2 phosphorylation in MCF7 cells [3]: 33.7 ng/mL | EC50 (ng/ml) n2, inhibition of Heregulin-induced ErbB2 phosphorylation in MCF7 cells [3]: 22.9 ng/mL | % Inhibition @10 µg/ml, Heregulin-induced MCF7 cell proliferation [4]: 96% | EC50 (ng/ml), inhibition of Heregulin-induced MCF7 cell proliferation [4]: 640 ng/mL | N1 % Inhibition @40 µg/ml, BT474 cell proliferation [1]: 38% | N1 EC50 (ng/ml), inhibition of BT474 cell proliferation [1]: 136 ng/mL | N2 EC50 (ng/ml), inhibition of BT474 cell proliferation [1]: 63 ng/mL | % inhibition @36 µg/ml, SKBR3 cell proliferation [2]: 52% | EC50 (ng/ml), inhibition of SKBR3 cell proliferation [2]: 35.7 ng/mL | % Inhibition @10 µg/ml (n1), ErbB2 phosphorylation in BT474 cells at 48 hours [5]: 37% | LA at 31 ng/ml [8]: 3.99 OD | Kd [9]: 2.5 nM | koff [9]: 0.000256 s⁻¹ | kon [9]: 102000 M⁻¹ s⁻¹

B6: monoclonal antibody 1.100.1 (antibody, V domains shown)
VH: QLQLQESGPGLVKPSETLSLTCTVSGGFISSSSYYWGWIRQPPGKGLEWIGTIYYSGTTYYNSSLKSRVTISVDTSQNQFSLKLSSVTAADTAVYYCARHHWVFDYWGQGTLVTVSS
VL: EVVLTQSPDFQSVTPKEKITITCRASQIIGTSLHWYQKKPDQSPKLLIKYASQSFSGVPSRFSGSGSGTEFTLTINSLEAEDTATYYCHQSTNLPWTFGQGTKVEIK
24 hr pTyr inhibition % (line 1*100) [7]: 95% | EC50 (ng/ml) n1, inhibition of Heregulin-induced ErbB2 phosphorylation in MCF7 cells [3]: 39.9 ng/mL | EC50 (ng/ml) n2, inhibition of Heregulin-induced ErbB2 phosphorylation in MCF7 cells [3]: 33.7 ng/mL | % Inhibition @10 µg/ml, Heregulin-induced MCF7 cell proliferation [4]: 95% | EC50 (ng/ml), inhibition of Heregulin-induced MCF7 cell proliferation [4]: 2040 ng/mL | N1 % Inhibition @40 µg/ml, BT474 cell proliferation [1]: 35% | N1 EC50 (ng/ml), inhibition of BT474 cell proliferation [1]: 169 ng/mL | N2 EC50 (ng/ml), inhibition of BT474 cell proliferation [1]: 91.1 ng/mL | % inhibition @36 µg/ml, SKBR3 cell proliferation [2]: 54% | EC50 (ng/ml), inhibition of SKBR3 cell proliferation [2]: 61.3 ng/mL | % Inhibition @10 µg/ml (n1), ErbB2 phosphorylation in BT474 cells at 48 hours [5]: 37% | LA at 31 ng/ml [8]: 3.54 OD | Kd [9]: 2.9 nM | koff [9]: 0.000301 s⁻¹ | kon [9]: 104000 M⁻¹ s⁻¹
